Data on two molecules can be found in paper doi:10.1101/2024.05.13.593894 (bioRxiv, 2024).

B1: FXR120-RXRα98 heterodimer (FXR_(120-486) with RXRα_(98-462)) (complex, human)
chain 1: KKPRMGASAGRIKGDELCVVCGDRASGYHYNALTCEGCKGFFRRSITKNAVYKCKNGGNCVMDMYMRRKCQECRLRKCKEMGMLAECMYTGLLTEIQCKSKRLRKNVKQHADQTVNEDSEGRDLRQVTSTTKSCREKTELTPDQQTLLHFIMDSYNKQRMPQEITNKILKEEFSAEENFLILTEMATNHVQVLVEFTKKLPGFQTLDHEDQIALLKGSAVEAMFLRSAEIFNKKLPSGHSDLLEERIRNSGISDEYITPMFSFYKSIGELKMTQEEYALLTAIVILSPDRQYIKDREAVEKLQEPLLDVLQKLCKIHQPENPQHFACLLGRLTELRTFNHHHAEMLMSWRVNDHKFTPLLCEIWDVQ
chain 2: MNPVSSSEDIKPPLGLNGVLKVPAHPSGNMASFTKHICAICGDRSSGKHYGVYSCEGCKGFFKRTVRKDLTYTCRDNKDCLIDKRQRNRCQYCRYQKCLAMGMKREAVQEERQRGKDRNENEVESTSSANEDMPVERILEAELAVEPKTETYVEANMGLNPSSPNDPVTNICQAADKQLFTLVEWAKRIPHFSELPLDDQVILLRAGWNELLIASFSHRSIAVKDGILLATGLHVHRNSAHSAGVGAIFDRVLTELVSKMRDMQMDKTELGCLRAIVLFNPDSKGLSNPAEVEALREKVYASLEAYCKHKYPEQPGRFAKLLLRLPALRSIGLKCLEHLFFFKLIGDTPIDTFLMEMLEAPHQMT
B2: SRC1_(630-987) (domain or fragment, human, UniProt Q15788 630-987, looked up)
chain: SHKLVQLLTTTAEQQLRHADIDTSCKDVLSCTGTSNSASANSSGGSCPSSHSSLTERHKILHRLLQEGSPSDITTLSVEPDKKDSASTSVSVTGQVQGNSSIKLELDASKKKESKDHQLLRYLLDKDEKDLRSTPNLSLDDVKVKVEKKEQMDPCNTNPTPMTKPTPEEIKLEAQSQFTADLDQFDQLLPTLEKAAQLPGLCETDRMDGAVTSVTIKSEILPASLQSATARPTSRLNRLPELELEAIDNQFGQPGTGDQIPWTNNTVTAINQSKSEDQCISSQLDELLCPPTTVEGRNDEKALLEQLVSFLSGKDETELAELDRALGIDKLVQGGGLDVLSERFPPQQATPPLIMEER
modifications: biotin (biotin-labelled in the BLI assays; site not stated)

In the assay “SRC1_(630-987)” the target is B2. Kind of assay: SEC-MALS. (In general: SEC sorts molecules by how far they enter the pores of the column.)
Assay [1] deals with SRC1_(630-987) M3 mutant (NR-box3 mutated) (human) (UniProt Q15788). Kind of assay: BLI. In general terms: In BLI a coated tip is dipped into the sample, and binding shifts an interference pattern.
Assay [2] deals with B1. Kind of assay: BLI.
The target of assay [3] is B1. Kind of assay: BLI. This is another data set of the same source.
The target in assay [4] is B1. Briefly: BLI. The source holds these as a separate data set.

Read-outs that look alike come from different tables or passages of the source.

A word on the stoichiometry N: it is a count of units in the complex or per binding partner. On to B1, for which, in the assay with SRC1_(630-987), the “stoichiometry N” value turned out to be 1. This molecule also had a fold reduction in affinity against wild type SRC1 (630-987) in assay [1] of 2 fold.
By Kd is commonly meant a measure of binding affinity in units of concentration. A lower Kd goes with tighter binding. For the molecule B2, the Kd in assay [2] is 43.1 nM; in assay [3] it was 23.7 nM; in assay [4] it was 49 nM.
